# From paper PMC3592467 (Nucleic Acids Research, 2012)
# B1: C17orf96 (natural protein)
# chain: METLCPAPRLAVPASPRGSPCSPTPRKPCRGTQEFSPLCLRALAFCALAKPRASSLGPGPGELAARSPVLRGPQAPLRPGGWAPDGLKHLWAPTGRPGVPNTAAGEDADVAACPRRGEEEEGGGGFPHFGVRSCAPPGRCPAPPHPRESTTSFASAPPRPAPGLEPQRGPAASPPQEPSSRPPSPPAGLSTEPAGPGTAPRPFLPGQPAEVDGNPPPAAPEAPAASPSTASPAPAAPGDLRQEHFDRLIRRSKLWCYAKGFALDTPSLRRGPERPPAKGPARGAAKKRRLPAPPPRTAQPRRPAPTLPTTSTFSLLNCFPCPPALVVGEDGDLKPASSLRLQGDSKPPPAHPLWRWQMGGPAVPEPPGLKFWGINMDES
# B2: Jarid2 (natural protein)
# chain: MSKERPKRNIIQKKYDDSDGIPWSEERVVRKVLYLSLKEFKNSQKRQHAEGIAGSLKTVNGLLGNDQSKGLGPASEQSENEKDDASQVSSTSNDVSSSDFEEGPSRKRPRLQAQRKFAQSQPNSPSTTPVKIVEPLLPPPATQISDLSKRKPKTEDFLTFLCLRGSPALPNSMVYFGSSQDEEEVEEEDDETEDVKTATNNASSSCQSTPRKGKTHKHVHNGHVFNGSSRSTREKEPVQKHKSKEATPAKEKHSDHRADSRREQASANHPAAAPSTGSSAKGLAATHHHPPLHRSAQDLRKQVSKVNGVTRMSSLGAGVTSAKKMREVRPSPSKTVKYTATVTKGAVTYTKAKRELVKDTKPNHHKPSSAVNHTISGKTESSNAKTRKQVLSLGGASKSTGPAVNGLKVSGRLNPKSCTKEVGGRQLREGLQLREGLRNSKRRLEEAHQAEKPQSPPKKMKGAAGPAEGPGKKAPAERGLLNGHVKKEVPERSLERNRPKRATAGKSTPGRQAHGKADSASCENRSTSQPESVHKPQDSGKAEKGGGKAGWAAMDEIPVLRPSAKEFHDPLIYIESVRAQVEKFGMCRVIPPPDWRPECKLNDEMRFVTQIQHIHKLGRRWGPNVQRLACIKKHLKSQGITMDELPLIGGCELDLACFFRLINEMGGMQQVTDLKKWNKLADMLRIPRTAQDRLAKLQEAYCQYLLSYDSLSPEEHRRLEKEVLMEKEILEKRKGPLEGHTENDHHKFHPLPRFEPKNGLIHGVAPRNGFRSKLKEVGQAQLKTGRRRLFAQEKEVVKEEEEDKGVLNDFHKCIYKGRSVSLTTFYRTARNIMSMCFSKEPAPAEIEQEYWRLVEEKDCHVAVHCGKVDTNTHGSGFPVGKSEPFSRHGWNLTVLPNNTGSILRHLGAVPGVTIPWLNIGMVFSTSCWSRDQNHLPYIDYLHTGADCIWYCIPAEEENKLEDVVHTLLQANGTPGLQMLESNVMISPEVLCKEGIKVHRTVQQSGQFVVCFPGSFVSKVCCGYSVSETVHFATTQWTSMGFETAKEMKRRHIAKPFSMEKLLYQIAQAEAKKENGPTLSTISALLDELRDTELRQRRQLFEAGLHSSARYGSHDGSSTVADGKKKPRKWLQLETSERRCQICQHLCYLSMVVQENENVVFCLECALRHVEKQKSCRGLKLMYRYDEEQIISLVNQICGKVSGKNGSIENCLSKPTPKRGPRKRATVDVPPSRLSASSSSKSASSSS
# B3: Spf27 (natural protein)
# chain: MAGTGLVAGEVVVDALPYFDQGYEAPGVREAAAALVEEETRRYRPTKNYLSYLTAPDYSAFETDIMRNEFERLAARQPIELLSMKRYELPAPSSGQKNDITAWQECVNNSMAQLEHQAVRIENLELMSQHGCNAWKVYNENLVHMIEHAQKELQKLRKHIQDLNWQRKNMQLTAGSKLREMESNWVSLVSKNYEIERTIVQLENEIYQIKQQHGEANKENIRQDF
# B4: PLRG1 (natural protein)
# chain: MVEEVQKHSVHTLVFRSLKRTHDMFVADNGKPVPLDEESHKRKMAIKLRNEYGPVLHMPTSKENLKEKGPQNATDSYVHKQYPANQGQEVEYFVAGTHPYPPGPGVALTADTKIQRMPSESAAQSLAVALPLQTKADANRTAPSGSEYRHPGASDRPQPTAMNSIVMETGNTKNSALMAKKAPTMPKPQWHPPWKLYRVISGHLGWVRCIAVEPGNQWFVTGSADRTIKIWDLASGKLKLSLTGHISTVRGVIVSTRSPYLFSCGEDKQVKCWDLEYNKVIRHYHGHLSAVYGLDLHPTIDVLVTCSRDSTARIWDVRTKASVHTLSGHTNAVATVRCQAAEPQIITGSHDTTIRLWDLVAGKTRVTLTNHKKSVRAVVLHPRHYTFASGSPDNIKQWKFPDGSFIQNLSGHNAIINTLTVNSDGVLVSGADNGTMHLWDWRTGYNFQRVHAAVQPGSLDSESGIFACAFDQSESRLLTAEADKTIKVYREDDTATEETHPVSWKPEIIKRKRF
# B5: AD-002 (natural protein)
# chain: MTTAARPTFEPARGGRGKGEGDLSQLSKQYSSRDLPSHTKIKYRQTTQDAPEEVRNRDFRRELEERERAAAREKNRDRPTREHTTSSSVSKKPRLDQIPAANLDADDPLTDEEDEDFEEESDDDDTAALLAELEKIKKERAEEQARKEQEQKAEEERIRMENILSGNPLLNLTGPSQPQANFKVKRRWDDDVVFKNCAKGVDDQKKDKRFVNDTLRSEFHKKFMEKYIK
# B6: PRP19 (natural protein)
# chain: MSLICSISNEVPEHPCVSPVSNHVYERRLIEKYIAENGTDPINNQPLSEEQLIDIKVAHPIRPKPPSATSIPAILKALQDEWDAVMLHSFTLRQQLQTTRQELSHALYQHDAACRVIARLTKEVTAAREALATLKPQAGLIVPQAVPSSQPSVVGAGEPMDLGELVGMTPEIIQKLQDKATVLTTERKKRGKTVPEELVKPEELSKYRQVASHVGLHSASIPGILALDLCPSDTNKILTGGADKNVVVFDKSSEQILATLKGHTKKVTSVVFHPSQDLVFSASPDATIRIWSVPNASCVQVVRAHESAVTGLSLHATGDYLLSSSDDQYWAFSDIQTGRVLTKVTDETSGCSLTCAQFHPDGLIFGTGTMDSQIKIWDLKERTNVANFPGHSGPITSIAFSENGYYLATAADDSSVKLWDLRKLKNFKTLQLDNNFEVKSLIFDQSGTYLALGGTDVQIYICKQWTEILHFTEHSGLTTGVAFGHHAKFIASTGMDRSLKFYSL
# B7: C10orf12 (natural protein)
# chain: MQRMIQQFAAEYTSKNSSTQDPSQPNSTKNQSLPKASPVTTSPTAATTQNPVLSKLLMADQDSPLDLTVRKSQSEPSEQDGVLDLSTKKSPCAGSTSLSHSPGCSSTQGNGENSTEAKAVDSNNQSKSPLEKFMVKLCTHHQKQFIRVLNDLYTESQPGTEDLQPSDSGAMDVSTCNAGCAQLSTKHKEKDALCLDMKSSASVDLFVDSSDSHSPLHLTEQTPKKPPPEINPVDGRENALTVVQKDSSELPTTKSNSINSSSVDSFTPGYLTASNCSSVNFHHIPKILEGQTTGQEQDTNVNICEDGKDHMQSSALVESLITVKMAAENSEEGNTCIIPQRNLFKALSEEAWNSGFMGNSSRTADKENTLQCPKTPLRQDLEANEQDARPKQENHLHSLGRNKVGYHLHPSDKGQFDHSKDGWLGPGPMPAVHKAANGHSRTKMISTSIKTARKSKRASGLRINDYDNQCDVVYISQPITECHFENQKSILSSRKTARKSTRGYFFNGDCCELPTVRTLARNLHSQEKASCSALASEAVFTPKQTLTIPAPRHTVDVQLPREDNPEEPSKEITSHEEGGGDVSPRKEPQEPEVCPTKIKPNLSSSPRSEETTASSLVWPLPAHLPEEDLPEGGSTVSAPTASGMSSPEHNQPPVALLDTEEMSVPQDCHLLPSTESFSGGVSEDVISRPHSPPEIVSREESPQCSENQSSPMGLEPPMSLGKAEDNQSISAEVESGDTQELNVDPLLKESSTFTDENPSETEESEAAGGIGKLEGEDGDVKCLSEKDTYDTSIDSLEENLDKKKKGKKFPEASDRCLRSQLSDSSSADRCLRNQSSDSSSACLEIKVPKNPSAKRSKKEGHPGGTTPKGLLPDSFHTETLEDTEKPSVNERPSEKDAEQEGEGGGIITRQTLKNMLDKEVKELRGEIFPSRDPITTAGQPLPGERLEIYVQSKMDEKNAHIPSESIACKRDPEQAKEEPGHIPTQHVEEAVNEVDNENTQQKDDESDAPCSSLGLSSSGSGDAARAPKSVPRPKRLTSSTYNLRHAHSLGSLDASKVTSEKEAAQVNPIMPKENGASESGDPLDEDDVDTVVDEQPKFMEWCAEEENQELIANFNAQYMKVQKGWIQLEKEGQPTPRARNKSDKLKEIWKSKKRSRKCRSSLESQKCSPVQMLFMTNFKLSNVCKWFLETTETRSLVIVKKLNTRLPGDVPPVKHPLQKYAPSSLYPSSLQAERLKKHLKKFPGATPAKNNWKMQKLWAKFRENPDQVEPEDGSDVSPGPNSEDSIEEVKEDRNSHPPANLPTPASTRILRKYSNIRGKLRAQQRLIKNEKMECPDALAVESKPSRKSVCINPLMSPKLALQVDADGFPVKPKSTEGMKGRKGKQVSEILPKAEVQSKRKRTEGSSPPDSKNKGPTVKASKEKHADGATKTPAAKRPAARDRSSQPPKKTSLKENKVKIPKKSAGKSCPPSRKEKENTNKRPSQSIASETLTKPAKQKGAGESSSRPQKATNRKQSSGKTRARPSTKTPESSAAQRKRKLKAKLDCSHSKRRRLDAK
# B8: AEBP2 (natural protein)
# chain: MAAAITDMADLEELSRLSPLPPGSPGSAARGRAEPPEEEEEEEEEEEEAEAEAVAALLLNGGSGGGGGGGGGGVGGGEAETMSEPSPESASQAGEDEDEEEDDEEEEDESSSSGGGEEESSAESLVGSSGGSSSDETRSLSPGAASSSSGDGDGKEGLEEPKGPRGSQGGGGGGSSSSSVVSSGGDEGYGTGGGGSSATSGGRRGSLEMSSDGEPLSRMDSEDSISSTIMDVDSTISSGRSTPAMMNGQGSTTSSSKNIAYNCCWDQCQACFNSSPDLADHIRSIHVDGQRGGVFVCLWKGCKVYNTPSTSQSWLQRHMLTHSGDKPFKCVVGGCNASFASQGGLARHVPTHFSQQNSSKVSSQPKAKEESPSKAGMNKRRKLKNKRRRSLPRPHDFFDAQTLDAIRHRAICFNLSAHIESLGKGHSVVFHSTVIAKRKEDSGKIKLLLHWMPEDILPDVWVNESERHQLKTKVVHLSKLPKDTALLLDPNIYRTMPQKRLKRTLIRKVFNLYLSKQ
# B9: CTNNBL1 (natural protein)
# chain: MDVGELLSYQPNRGTKRPRDDEEEEQKMRRKQTGTRERGRYREEEMTVVEEADDDKKRLLQIIDRDGEEEEEEEEPLDESSVKKMILTFEKRSYKNQELRIKFPDNPEKFMESELDLNDIIQEMHVVATMPDLYHLLVELNAVQSLLGLLGHDNTDVSIAVVDLLQELTDIDTLHESEEGAEVLIDALVDGQVVALLVQNLERLDESVKEEADGVHNTLAIVENMAEFRPEMCTEGAQQGLLQWLLKRLKAKMPFDANKLYCSEVLAILLQDNDENRELLGELDGIDVLLQQLSVFKRHNPSTAEEQEMMENLFDSLCSCLMLSSNRERFLKGEGLQLMNLMLREKKISRSSALKVLDHAMIGPEGTDNCHKFVDILGLRTIFPLFMKSPRKIKKVGTTEKEHEEHVCSILASLLRNLRGQQRTRLLNKFTENDSEKVDRLMELHFKYLGAMQVADKKIEGEKHDMVRRGEIIDNDTEEEFYLRRLDAGLFVLQHICYIMAEICNANVPQIRQRVHQILNMRGSSIKIVRHIIKEYAENIGDGRSPEFRENEQKRILGLLENF
# Key:
# [1] = target: EED-GFP (UniProt O75530 1-441); test: affinity purification with mass spectrometry
# [2] = target: CDC5L–GFP (UniProt Q99459 1-802); test: affinity purification with mass spectrometry
# Sequence of CDC5L–GFP (Q99459 whole entry): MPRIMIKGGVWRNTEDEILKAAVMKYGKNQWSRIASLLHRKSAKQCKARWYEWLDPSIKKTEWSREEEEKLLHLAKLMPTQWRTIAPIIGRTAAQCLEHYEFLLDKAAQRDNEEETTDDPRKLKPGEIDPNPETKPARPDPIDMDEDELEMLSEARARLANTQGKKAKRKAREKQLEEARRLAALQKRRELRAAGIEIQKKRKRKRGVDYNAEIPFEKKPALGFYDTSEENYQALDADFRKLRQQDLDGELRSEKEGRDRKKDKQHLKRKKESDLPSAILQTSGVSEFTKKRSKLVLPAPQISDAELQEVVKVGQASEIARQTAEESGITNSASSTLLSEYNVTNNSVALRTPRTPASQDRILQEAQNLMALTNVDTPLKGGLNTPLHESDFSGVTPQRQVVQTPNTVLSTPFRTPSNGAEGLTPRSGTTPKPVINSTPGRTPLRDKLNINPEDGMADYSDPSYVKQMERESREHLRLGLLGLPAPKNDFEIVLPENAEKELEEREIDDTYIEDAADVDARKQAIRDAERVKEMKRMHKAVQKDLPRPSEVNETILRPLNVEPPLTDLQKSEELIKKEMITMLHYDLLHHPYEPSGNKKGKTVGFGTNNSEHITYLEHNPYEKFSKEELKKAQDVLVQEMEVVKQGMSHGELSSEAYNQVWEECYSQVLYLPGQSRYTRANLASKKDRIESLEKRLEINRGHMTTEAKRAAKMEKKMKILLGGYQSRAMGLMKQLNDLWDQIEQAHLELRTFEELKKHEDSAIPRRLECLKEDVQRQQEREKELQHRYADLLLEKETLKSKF
# Sequence of EED-GFP (O75530 whole entry): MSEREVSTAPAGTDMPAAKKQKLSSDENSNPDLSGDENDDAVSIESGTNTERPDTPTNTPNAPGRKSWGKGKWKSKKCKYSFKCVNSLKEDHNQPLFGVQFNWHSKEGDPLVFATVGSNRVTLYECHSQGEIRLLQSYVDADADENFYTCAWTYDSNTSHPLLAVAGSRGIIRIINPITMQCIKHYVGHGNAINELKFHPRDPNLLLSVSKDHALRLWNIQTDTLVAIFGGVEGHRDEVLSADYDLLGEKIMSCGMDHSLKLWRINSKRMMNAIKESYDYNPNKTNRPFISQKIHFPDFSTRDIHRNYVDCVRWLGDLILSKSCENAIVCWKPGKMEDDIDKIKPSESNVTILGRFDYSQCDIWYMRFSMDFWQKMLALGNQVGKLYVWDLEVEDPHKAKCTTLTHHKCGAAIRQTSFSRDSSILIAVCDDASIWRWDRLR
Binder,stoichiometry N [1],stoichiometry N [2],stoichiometry with CDC5L as a dimer (CDC5L 2) [2] [per CDC5L dimer]
B1,0.47 relative to EED,–,–
B2,0.12 relative to EED,–,–
B3,–,0.62 relative to CDC5L,1.24
B4,–,0.37 relative to CDC5L,0.72
B5,–,0.36 relative to CDC5L,0.72
B6,–,2.08 relative to CDC5L,4.16
B7,~0.06 relative to the core subunits,–,–
B8,0.2 relative to EED,–,–
B9,–,0.06 relative to CDC5L,0.12
